Assay results from patent US20220249563A1 (LEGEND BIOTECH IRELAND, published 2022).
Numbering of substitutions follows the chain as printed. One block for each binder: values may come before it.

Molecular target: T1, extracellular domain of human DLL3 protein (aa27-466) having an N-terminal FLAG tag (AdipoGen, AG-40B-0151) (human, UniProt Q9NYJ7 27-466)
T1 construct: range 27-466; also called DLL3 ECD protein
T1 sequence (looked up): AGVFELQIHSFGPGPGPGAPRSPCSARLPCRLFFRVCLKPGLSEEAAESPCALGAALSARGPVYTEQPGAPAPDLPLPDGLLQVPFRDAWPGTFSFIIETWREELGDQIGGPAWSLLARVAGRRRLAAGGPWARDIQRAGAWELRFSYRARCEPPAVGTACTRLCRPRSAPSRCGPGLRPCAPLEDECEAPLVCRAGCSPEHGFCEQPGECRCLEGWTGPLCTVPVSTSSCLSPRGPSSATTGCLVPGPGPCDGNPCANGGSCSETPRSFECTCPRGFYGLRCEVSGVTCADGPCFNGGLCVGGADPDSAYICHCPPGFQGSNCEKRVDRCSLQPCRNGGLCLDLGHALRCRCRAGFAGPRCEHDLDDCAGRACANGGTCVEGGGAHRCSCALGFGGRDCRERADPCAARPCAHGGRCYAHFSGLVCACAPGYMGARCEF
Assay: ELISA (protein), FACS (cells)

B1: AS64160 (VHH)
VHH: EVQLVESGGGSVQAGGSLRLSCAASVYTSSSYCMGWFRQAPGKEREGVAAMCFGGLVTHYADSVKGRFTISQDNAKNTVYLQMNSLKPEDTAMYYCAADFGRDKNYLRPLLPHAYNYWGQGTQVTVSS
notes: camel sdAb; crude E. coli supernatant
- binding result: binds

B2: AS68280 (VHH)
VHH: QVQLVESGGGSVHPGGSLRLSCAASGSTYSSNYLGWFRQAPGKGRDWVAAISTGDGATAYADSVKGRFTISQDNAKNTVYLQMNSLKLEDSAMYYCAAARGRFIDWTKATQYDYWGQGTQVTVSS
notes: as for B1
- binding result: binds

B3: AS64597 (VHH)
VHH: QVHLVESGGGSVQAGGSLRLSCAASGYTYRVNFMGWFRQTPGKEREGVATIDSGVGTTYYADSVKGRFTISHNNAKNTIYLQMNSLKPEDTAMYYCAAGGPPTDGDRWYPLRPPGYNYWGQGTQVTVSS
notes: as for B1
- binding result: binds

B4: AS64123 (VHH)
VHH: QVQLAESGGGSVQAGGSLRLSCAASGYTYTSNWLGWFRQAPGKEREEVAIIYTGSGSTHYRSSVKGRFTISQDNAKNTVYLQMNSLKPEDTAMYYCAARFSEYNYWGQGTQVTVSS
notes: as for B1
- binding result: binds

B5: AS63999 (VHH)
VHH: B4 VHH with Q1E, A5V, T30S, L34M, S55G, G56I, F100Y, S101T, E102D
notes: as for B1
- binding result: binds

B6: AS64300 (VHH)
VHH: QVHLVESGGGSVQTGGSLRLSCAVSGDIYNLMSMAWFRRAPGKEREGVAYINTIIGNTYYTDSVKGRFTISRDNSKNTLYLQMNNLKPEDTAMYYCAAFNYGGAWYEERSYKYWGQGTQVTVSS
notes: as for B1
- binding result: binds

B7: AS64228 (VHH)
VHH: QVQLKESGGGSIQAGGSLRLSCAASGVSYNRCSMGWYRQAPGKGRELVSRIQPGGNTYYADSVKGRFTVSQDNAKNTVSLQMNSLKPEDTAMYYCNALCWRENVNYWGQGTQVTVSS
notes: as for B1
- binding result: binds

B8: AS63932 (VHH)
VHH: QVQLEESGGGSVQAGGSLRLSCVASGYTYGSTFMGWFRQNPGKEREGVAVIYTGGGSTWYASSVKGRFTISQDNAKNTVYLQMNSLKPEDTAMYYCAARYGSGNVNYWGQGTQVTVSS
notes: as for B1
- binding result: binds

B9: AS64072 (VHH)
VHH: QVQLVESGGGSVQAGGFLRLSCALSGYSYYINLMAWFRQAPGKEREAVAAHGPVSGTAYYTDSVKGRFTISRDPGKNTMYLQMFSLQPEDTALYYCAAETTMGWAHERGYRYWGQGTQVTVSS
notes: as for B1
- binding result: binds

B10: AS75378 (VHH)
VHH: QVQLEESGGGSVQAGGSLRLSCVVSGNTRSTTYMGWFRQAPGKEREGVAIVYTGGRDTYYAASVKGRFTISQDNAKTTIYLQMNSLEPEDTAMYYCAARSYEYTYWGRGTQVTVSS
notes: as for B1
- binding result: binds

B11: AS76169 (VHH)
VHH: QVHLMESGGGSVQAGGSLRLSCAASGYIYSSFCMGWFRQAPGKEREVVAYIRDNIMTSYTDSVKGRFTISKDNAKRTLYLQMNGLKPEDTGMYYCAVDRGGYANSCAVAARYDYWGRGTQVTVSS
notes: as for B1
- binding result: binds

B12: AS64142 (VHH)
VHH: QVHLMESGGGLVQTGGSLRLSCTASGFTFDRNAMRWYRQAPGKEREGVSCIDWTGANIAYADSVKGRFTISRDNAKNTLYLQMNSLKPEDTGMYYCAADTTSGYCSGFWSTSRYSWGQGTQVTVSS
notes: as for B1
- binding result: binds

B13: AS64057 (VHH)
VHH: B12 VHH with H3Q, M5E, D52S, Y104S, S115Y
notes: as for B1
- binding result: binds

B14: AS69500 (VHH)
VHH: QVRLVESGGGSVQAGGSLRLSCAADRYTYSSACMGWFRQAPGKEREGVASIFTGTGGSTYYADSVKGRFTISQDNAKNTVYLQMNSLKPEDTAIYYCAARAFQVGYCYLRTDVYNYWGQGTQVTVSS
notes: as for B1
- binding result: binds

Now from value to binder:

- binding result: binds
B15: AS63956 (VHH)
VHH: QVHLVESGGGLVQAGGSLRLSCAASGFTYSNCCMRWYRQAPGKARELVSLINSSGGTYYADSVRGRFTISKDNAKNTLYLQMNSLKPEDTAMYYCAAYQAKYCSGPCAPPTDWGQGTQVTVSS
notes: as for B1

- binding result: binds
B16: AS75376 (VHH)
VHH: QVQLKESGGGSVQAGGSLRLSCAASGYTYSSHSMGWFRQAPGKEREGVAVIYTGDGSTYYADSVKGRFTISQDNAKNTVYLQMNSLKPEDTAMYYCAADPNPDYMLPFRPSRRSWWGQGTQVTVSS
notes: as for B1

- binding result: binds
B17: AS64443 (VHH)
VHH: QVHLVESGGGSVQAGGSLRLSCAASGYTDSSVYIGWFRQAPGKEREEVAIIYTGGESTHYRSSVKGRFTVSQDNAKNTLYLQMNSLKPEDTAMYYCAARFPAVTYWGQGTQVTVSS
notes: as for B1

- binding result: binds
B18: AS64130 (VHH)
VHH: EVQLAESGGGSVQAGGSLRLSCAASGYTYRSNFMGWFRQAPAKEREGVATIDSRGTITYYADSVKGRFTISQDNEKNTVYLQMNSLKPEDTAMYYCAAGGPRTNDDRWYPLRPPGYNYWGQGTQVTVSS
notes: as for B1

- binding result: binds
B19: AS64137 (VHH)
VHH: QVRLVESGGGSVQAGGSLRLSCAASGSTYSTNFMGWFRQAPGKEREGVATLVTWVERTAYADSVKGRFTISQDRAKNTVYLQMNSLKPEDTAMYYCAAAAASTDVRLLDPGDFAYWGQGTQVTVSS
notes: as for B1

- binding result: binds
B20: AS69527 (VHH)
VHH: EVQLAESGGGSVQAGGSLRLSCVASRYTFSSTCMAWFRQAPGKEREEVAAIYTDDGSTWYADSVKGRFTISRDNAKNTVYLQMNSLKPEDTAMYYCAARRWACPRVGSWHEFAYWGQGTQVTVSS
notes: as for B1

- binding result: binds
B21: AS75751 (VHH)
VHH: QVRLVESGGGSVQAGGSLRLSCVASGYFYNTYYFMGWFRQAPGKEREGVAAIDTDGRTSYADSVKGRFTISKDNAKNTLYLQMNSLKPEDTAMYYCAAGFGYMNVIQALNGMRQNPDYWGQGTQVTVSS
notes: as for B1

- binding result: binds
B22: AS63937 (VHH)
VHH: QVKLVESGGGSVQAGGSLRLSCAASGSTISSRPMAWFRQAPGKEREGVACIHTGLGRTYYADSVKGRFTISQDNAKNTVYLQVNSLKPEDTAMYYCAADSRRPCMVAAGYTYWGQGTQVTVSS
notes: as for B1

- binding result: binds
B23: AS76422 (VHH)
VHH: QVKLVESGGGSVQAGGSLRLSCAASGYTFAGNCLGWFRQAPGKGREGVVTYNNFGVANYADSVKGRFTVSQDNAKNTLLLQMNSLEPEDTAMYYCAADRRDGRRWSQPCEWNTWGQGTQVTVSS
notes: as for B1

- binding result: binds
B24: AS68355 (VHH)
VHH: QMQLVESGGDSVQAGGSLRLSCAASGYTYSGVCMGWFRQAPGKEREGVAAIDSDGSTSYADSVKGRFTISKDNAKNTLYLQMNSLKPEDTAMYYCAAAIVGGFNAYCSGGYVLDFGAWGQGTQVTVSS
notes: as for B1

- binding result: binds
B25: AS64114 (VHH)
VHH: QVQLQESGGGSVQAGGSLTLSCEASGNTYSTNYMGWFRQAPGKEREEVAVIYTRGGHTYYVDSVRGRFTISQDNAKNTVYLQMNSLKPEDTAMYYCAAASRHRLRLNNPRDYDYWGQGTQVTVSS
notes: as for B1

- binding result: binds
B26: AS75383 (VHH)
VHH: EVQLAESGGGSVQAGGSLRLSCVASGYTFSSYCLGWFRQAPGKQRQGVATFNNRGVANYHDSVKGRFTASVDNAKNTLLLQMNSLEPDDTAMYYCAADRRYGRQWYQPCEWNTWGQGTQVTVSS
notes: as for B1

- binding result: binds
B27: AS64395 (VHH)
VHH: QVRLVESGGGSVQAGGSLRLSCAASGSTYSTNFMGWFRQAPGKEREGVATLVTWAERTAYADSVKGRFTISQDRAKNTVYLQMNGLKPEDTAMYYCAAAASTAVRLLDPGDFAYWGQGTQVTVSS
notes: as for B1

- binding result: binds
B28: AS75695 (VHH)
VHH: QVRLVESGGGSVQAGGSLRLSCVASGYTVSAYCMGWFRQVLGKGRERIAFIDAGGATIYADPVKGRFTISKDNAKNTLYLQMNSLKPEDTAMYYCVADRRGRVRRCEYNAWGQGTQVTVSS
notes: as for B1

- binding result: binds
B29: AS75387 (VHH)
VHH: QVHLVESGGGSVQAGGSLRLSCAASGYPYSSPCMAWFRQAPGKEREGVLVAYTGGDIQYLTDSVKGRFTISRDNAKNTVYLQMNSLKPEDTAMYYCAADLRLPRAGGCAYSYWGQGTQVTVSS
notes: as for B1

- binding result: binds
B30: AS64634 (VHH)
VHH: QVRLVESGGGSVQAGGSLRLSCAASGYSFRGDFMCMGWFRQTPGKGREGVAVFYPGGGSTNYADSAKGRFTISQDNAKNTMYLQMNTLKPEDTAMYYCAARRWVSGTCYWDSDFHYWGQGTQVTVSS
notes: as for B1

- binding result: binds
B31: AS64097 (VHH)
VHH: QVHLMESGGGSVQAGGSLRLSCEASGYTYSRNCMGWFRQAPGKEREGVAAINTGGGSTYYADSLEGRFTISQDNAKNTMYLQMNSLKPEDTAMYYCAAGPDLGGSWCRPVERAFTYWGQGTQVTVSS
notes: as for B1
